Tests used:
[1] = molecular target: T1, NAD-dependent protein deacetylase sirtuin-2 (Homo sapiens, UniProt Q8IXJ6); assay: Inhibition of N-terminal His6 tagged human sirtuin 2 (25 to 389 residues) at 50 uM using Cbz-Lys(acetyl)-AMC as substrate after 4 hrs in presence of NAD+ by homogeneous fluorescence based analysis relative to control
T1 sequence (Q8IXJ6 whole entry): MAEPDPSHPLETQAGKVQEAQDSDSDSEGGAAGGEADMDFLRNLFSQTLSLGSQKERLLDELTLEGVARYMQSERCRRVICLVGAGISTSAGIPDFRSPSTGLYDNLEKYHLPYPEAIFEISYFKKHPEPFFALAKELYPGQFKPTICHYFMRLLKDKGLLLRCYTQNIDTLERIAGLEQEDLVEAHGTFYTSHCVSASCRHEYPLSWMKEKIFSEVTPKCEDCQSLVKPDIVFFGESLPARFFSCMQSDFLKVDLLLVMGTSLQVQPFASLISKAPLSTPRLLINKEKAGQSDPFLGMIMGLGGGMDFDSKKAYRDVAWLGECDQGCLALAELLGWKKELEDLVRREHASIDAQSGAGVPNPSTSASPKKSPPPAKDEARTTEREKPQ

[2] = molecular target: T2, NAD-dependent protein deacetylase (Schistosoma mansoni, UniProt T1VXA1); assay: Inhibition of recombinant Schistosoma mansoni sirtuin 2 (21 to 322 residues) expressed in Escherichia coli BL21(DE3) cells using ZMAL as substrate after 1 hr in presence of NAD+ by homogeneous fluorescence based analysis
T2 sequence (T1VXA1 whole entry): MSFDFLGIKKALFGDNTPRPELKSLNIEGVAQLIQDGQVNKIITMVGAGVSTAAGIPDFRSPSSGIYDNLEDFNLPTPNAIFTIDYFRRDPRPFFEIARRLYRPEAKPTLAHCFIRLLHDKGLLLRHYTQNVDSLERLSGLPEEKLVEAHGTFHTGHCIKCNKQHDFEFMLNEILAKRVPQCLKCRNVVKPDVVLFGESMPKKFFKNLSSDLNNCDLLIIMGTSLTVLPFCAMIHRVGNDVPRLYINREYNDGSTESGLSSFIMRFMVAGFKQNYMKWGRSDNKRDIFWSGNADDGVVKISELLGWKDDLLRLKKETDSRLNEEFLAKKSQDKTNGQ

[3] = molecular target: T1, NAD-dependent protein deacetylase sirtuin-2; assay: Inhibition of N-terminal His6 tagged human sirtuin 2 (25 to 389 residues) assessed as inhibition of substrate demyristoylation at 20 uM using (Z)-(Myr)-Lys-AMC as susbtrate after 4 hrs in presence of NAD+ by homogeneous fluorescence based analysis relative to control
[4] = molecular target: T3, NAD-dependent protein deacetylase (Schistosoma mansoni) (UniProt T1VXA1); assay: (§1) Inhibition of recombinant Schistosoma mansoni sirtuin 2 (21 to 322 residues) expressed in Escherichia coli BL21(DE3) cells at 25 uM using ZMAL as susbtrate after 1 hr in presence of NAD+ by homogeneous fluorescence based analysis relative to control
T3 sequence (whole entry): T2 sequence (T1VXA1 whole entry)

[5] = molecular target: T1, NAD-dependent protein deacetylase sirtuin-2; assay: Inhibition of N-terminal His6 tagged human sirtuin 2 (25 to 389 residues) at 25 uM using Cbz-Lys(acetyl)-AMC as substrate after 4 hrs in presence of NAD+ by homogeneous fluorescence based analysis relative to control
[6] = molecular target: T3, NAD-dependent protein deacetylase (Schistosoma mansoni); assay: as §1, with “cells assessed as inhibition of substrate demyristoylation” for “cells”, “20” for “25”, “(Z)-(Myr)-Lys-AMC” for “ZMAL”
[7] = molecular target: T1, NAD-dependent protein deacetylase sirtuin-2; assay: Inhibition of human sirutin 2 assessed as inhibition of susbtrate demyristoylation at 20 uM using (Z)-(Myr)-Lys-AMC as substrate relative to control
[8] = molecular target: T3, NAD-dependent protein deacetylase (Schistosoma mansoni); assay: Inhibition of recombinant Schistosoma mansoni sirtuin 2 (21 to 322 residues) expressed in Escherichia coli BL21(DE3) cells assessed as inhibition of substrate demyristoylation at 20 uM using (Z)-(Myr)-Lys-AMC as substrate relative to control
[9] = molecular target: T3, NAD-dependent protein deacetylase (Schistosoma mansoni); assay: Inhibition of recombinant Schistosoma mansoni sirtuin 2 (21 to 322 residues) expressed in Escherichia coli BL21(DE3) cells assessed as inhibition of substrate deacetylation at 20 uM using ZMAL as substrate relative to control
[10] = substrate: NC(=O)c1ccc[n+]([C@H]2O[C@@H](COP(=O)([O-])OP(=O)(O)OC[C@H]3O[C@@H](n4cnc5c(N)ncnc54)[C@H](O)[C@@H]3O)[C@H](O)[C@@H]2O)c1; assay: Substrate activity at recombinant Schistosoma mansoni sirtuin 2 (21 to 322 residues) expressed in Escherichia coli BL21(DE3) cells assessed as Km up to 30 mins in presence of ZMAL at saturated substrate concentration by homogeneous fluorescence based analysis; type: ADME
[11] = substrate: NC(=O)c1ccc[n+]([C@H]2O[C@@H](COP(=O)([O-])OP(=O)(O)OC[C@H]3O[C@@H](n4cnc5c(N)ncnc54)[C@H](O)[C@@H]3O)[C@H](O)[C@@H]2O)c1; assay: Substrate activity at recombinant Schistosoma mansoni sirtuin 2 (21 to 322 residues) expressed in Escherichia coli BL21(DE3) cells assessed as Km up to 30 mins in presence of PSDKmyr at saturating concentration by RP-HPLC analysis; type: ADME
[12] = substrate: CC(=O)N[C@@H](CCCCN)C(=O)Nc1ccc2c(C)cc(=O)oc2c1; assay: (§2) Substrate activity at recombinant Schistosoma mansoni sirtuin 2 (21 to 322 residues) expressed in Escherichia coli BL21(DE3) cells assessed as Km up to 30 mins by homogeneous fluorescence based analysis; type: ADME
[13] = substrate: CCCCCCCCCCCCCCCC(=O)NCCCC[C@H](NC(=O)OCc1ccccc1)C(=O)Nc1ccc2c(C)cc(=O)oc2c1; assay: as §2; type: ADME
[14] = substrate: NC(=O)c1ccc[n+]([C@H]2O[C@@H](COP(=O)([O-])OP(=O)(O)OC[C@H]3O[C@@H](n4cnc5c(N)ncnc54)[C@H](O)[C@@H]3O)[C@H](O)[C@@H]2O)c1; assay: Substrate activity at recombinant Schistosoma mansoni sirtuin 2 (21 to 322 residues) expressed in Escherichia coli BL21(DE3) cells assessed as Km up to 30 mins in presence of PSDKac at saturating concentration by RP-HPLC analysis; type: ADME
[15] = substrate: CCCCCCCCCCCCCC(=O)NCCCC[C@H](NC(=O)[C@H](CC(=O)O)NC(=O)[C@H](CO)NC(=O)[C@@H]1CCCN1C(C)=O)C(=O)N[C@@H](Cc1ccc(O)cc1)C(=O)N[C@H](C(=O)NCC(=O)NCC(=O)N[C@@H](Cc1c[nH]c2ccccc12)C(=O)N[C@@H](Cc1c[nH]c2ccccc12)C(N)=O)[C@@H](C)CC; assay: Substrate activity at recombinant Schistosoma mansoni sirtuin 2 (21 to 322 residues) expressed in Escherichia coli BL21(DE3) cells assessed as Km up to 30 mins by RP-HPLC analysis; type: ADME
[16] = substrate: NC(=O)c1ccc[n+]([C@H]2O[C@@H](COP(=O)([O-])OP(=O)(O)OC[C@H]3O[C@@H](n4cnc5c(N)ncnc54)[C@H](O)[C@@H]3O)[C@H](O)[C@@H]2O)c1; assay: Substrate activity at recombinant Schistosoma mansoni sirtuin 2 (21 to 322 residues) expressed in Escherichia coli BL21(DE3) cells assessed as Km up to 30 mins in presence of ZMML at saturated concentration by homogeneous fluorescence based analysis; type: ADME

Q: Which inhibition at 50 µM [1] does the source give for `O=C(c1cc2cc(Cl)ccc2[nH]1)N1CCCCC1c1cccnc1` (stereo not drawn) here?
A: The inhibition at 50 µM was less than 15%.

Q: And the IC50 [2]?
A: The IC50 was 18.2 µM.

Q: Which inhibition at 20 µM [3] does the source give for `CSc1ccc(Oc2ccc(C(C)N(C)c3ncc4c(N)nc(N)nc4n3)cc2)cc1` (stereo not drawn) here?
A: Its inhibition at 20 µM is 38.1%.

Q: And the inhibition [4]?
A: The inhibition was 49%.

Q: What about the inhibition at 25 µM [5] of the same molecule?
A: The inhibition at 25 µM was less than 15%.

Q: What about the inhibition [6] of the same molecule?
A: Its inhibition is less than 15%.

Q: What does the source list for `Cc1cc(C)nc(SCC(=O)Nc2ncc(Cc3cccc4ccccc34)s2)n1`?
A: inhibition at 20 µM [7]: < 15%; inhibition [8]: < 15%; inhibition [9]: < 15%

B1: NAD-dependent protein deacetylase (Schistosoma mansoni) (protein)
chain: T2 sequence (T1VXA1 whole entry)
Q: For B1, which Km [10] is on record?
A: Its Km is 75.8 µM.

Q: What about the kcat [10] of the same molecule?
A: Its kcat is 0.000119 s⁻¹.

Q: What about the Km [11] of the same molecule?
A: Its Km is 13.3 µM.

Q: What about the kcat [11] of the same molecule?
A: The kcat was 0.00538 s⁻¹.

Q: And the kcat/Km [11]?
A: The kcat/Km was 410 M⁻¹ s⁻¹.

Q: What about the Km [12] of the same molecule?
A: The Km was 59 µM.

Q: And the Km [13]?
A: The Km was 37.5 µM.

Q: And the Km [14]?
A: Its Km is 33.9 µM.

Q: And the kcat [14]?
A: The kcat was 0.00172 s⁻¹.

Q: And the kcat/Km [14]?
A: Its kcat/Km is 51 M⁻¹ s⁻¹.

Q: And the Km [15]?
A: The Km was 15.1 µM.

Q: What about the kcat [15] of the same molecule?
A: The kcat was 0.00563 s⁻¹.

Q: What about the kcat/Km [15] of the same molecule?
A: Its kcat/Km is 370 M⁻¹ s⁻¹.

Q: What about the Km [16] of the same molecule?
A: The Km was 9.3 µM.
